The target in this assay is human PD-L1 on Raji cells (human) (UniProt Q9NZQ7). As to the kind of experiment: flow cytometry blocking assay on Raji-PDL1 cells; blocked ligand: biotinylated Avi- and His-tag human PD1 protein at 3 ug/mL, Streptavidin-PE, MFI; isotype control, the fitted curve falls only from MFI about 320 to about 240. In general terms: In flow cytometry, cells or beads pass a laser one at a time.

For orientation: pEC50 means the EC50 on a negative log10 scale, so that one unit is a factor of ten.

pEC50: −log10 of the molar value.

Sequence of human PD-L1 on Raji cells (human) (Q9NZQ7 19-290): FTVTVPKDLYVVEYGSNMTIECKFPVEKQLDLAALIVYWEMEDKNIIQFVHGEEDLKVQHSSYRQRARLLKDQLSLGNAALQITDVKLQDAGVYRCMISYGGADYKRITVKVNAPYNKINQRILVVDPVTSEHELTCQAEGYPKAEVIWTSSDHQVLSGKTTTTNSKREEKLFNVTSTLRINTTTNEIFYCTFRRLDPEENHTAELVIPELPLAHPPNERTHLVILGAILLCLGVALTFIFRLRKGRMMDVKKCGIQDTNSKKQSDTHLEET

Regarding IgG (antibody), the pEC50 was 9.35.
